What was measured:
[1] = tested on: DmEcR-CDEF; assay: VP16/DmEcR-CDEF wild-type and mutants, 6xEcRE β-gal reporter transactivation in insect L57 cells; format: cell-based, Drosophila melanogaster; conditions: for Fold increase over WT, 1 μM 20-hydroxyecdysone / Fold increase over WT, 1 μM GS™-E / reduction in steroid activity: VP16/DmEcR-CDEF; for reduction in steroid activity / steroid activity (summary of Table 14): 20E; for reduction in steroid activity: versus wild-type; for non-steroid activity (summary of Table 14): GS™-E; for non-steroid activity (summary of Table 14) / steroid activity (summary of Table 14): DmEcR mutants
Procedure: The wild-type and mutant DmEcR-CDEF receptors were also used to make VP16/wild-type or mutantDmEcR-CDEF constructs as described in Example 1.10 and 1.11. VP16DmEcR-CDEF and a 6×EcREβ-gal reporter were transfected into L57 cells and the transfected cells were treated with 1 uM 20-hydroxyecdysone (20E) or GS™-E. The cells were harvested, lysed and the reporter activity was measured as described above in Example 6. The fold induction was calculated by dividing reporter activity in the presence of ligand with the reporter activity in the absence of ligand. From the fold induction, percent wild-type activity was calculated for each mutant.

[2] = tested on: DmEcR-CDEF; assay: GAL4/DmEcR-CDEF wild-type and mutants, luciferase reporter transactivation in NIH3T3 cells; format: cell-based, Drosophila melanogaster; conditions: GAL4/DmEcR-CDEF + VP16/LmUSP-EF + pFRLUC, 48 hours
Procedure: (§1) DNAs corresponding to the various switch constructs outlined in Example 1, specifically switches 1.1-1.2, were transfected into mouse NIH3T3 cells (ATCC) as follows. […] Two μl of Superfect™ was mixed with 100 μl of growth medium and 50 ng of either GAL4/wild-type EcR or Gal4/mutant EcR cassette, 50 ng of VP16/LmUSP-EF and 200 ng of pFRLuc were added to the transfection mix. […] The cells were harvested and reporter activity was assayed as described above.
Applicants mutated amino acid residues predicted to be critical for ecdysteroid binding and created GAL4/mutantDmEcR-CDEF cDNA gene expression cassettes as described in Example 1 above using PCR-mediated site-directed mutagenesis. The mutated and the WT cDNAs corresponding to the various switch constructs outlined above in Examples 1.8 and 1.9 were made and tested in reporter assays in NIH3T3 cells as described in Example 2. Each GAL4/DmEcR-CDEF construct, VP16/LmUSP-EF, and pFRLUC were transfected into NIH3T3 cells and the transfected cells were treated with 2.5 μM GS-™E or Ponasterone A. The cells were harvested and the reporter activity was measured at 48 hours after addition of ligand. The fold induction was calculated by dividing reporter activity in the presence of ligand with the reporter activity in the absence of ligand. From the fold induction, percent wild-type activity was calculated for each mutant.

[3] = tested on: CfEcR-DEF; assay: GAL4/mutant CfEcR-DEF + VP16/LmUSP-EF GAL4-driven luciferase reporter transactivation in NIH3T3 cells; format: cell-based, Choristoneura fumiferana; conditions: NIH3T3 cells, relative to Gal4/wild-type CfEcR-DEF switch activity; for Fold increase over WT, 2.5 μM GS™-E: 2.5 μM GS™-E non-steroidal ligand; for Fold increase over WT, 2.5 μM PonA: 2.5 μM PonA steroidal ligand
Procedure: DNAs corresponding to the various switch constructs outlined in Example 1, specifically switches 1.1-1.13, were transfected into mouse NIH3T3 cells (ATCC) or L57 cells (Dr. Peter Cherbas; Indiana University) as follows. Standard methods for culture and maintenance of the cells were followed. […] Superfect™ (Qiagen Inc.) was used for 3T3 cells and Lipofectamine™ (LifeTechnologies) was used for L57 cells as the transfection reagents. For 12-well plates, 4 μl of Superfect™ or Lipofectamine™ was mixed with 100 μl of growth medium. One μg of reporter construct and 0.25 μg of each receptor construct of the receptor pair to be analyzed were added to the transfection mix. […] The cells were harvested and reporter activity was assayed.
Cells were harvested 40 hours after adding ligands. […] Twenty μl of lysate were assayed.
Briefly, Applicants mutated amino acid residues predicted to be critical for ecdysteroid binding into alanine and created GAL4/mutantCfEcR-DEF cDNA gene expression cassettes as described in Example 1 above using the Quikchange PCR-mediated site-directed mutagenesis kit (Stratagene, La Jolla, Calif.). The mutated and the WT cDNAs were tested in GAL4-driven luciferase reporter assays.
as §1

Molecule | Fold increase over WT, 1 μM 20-hydroxyecdysone [1] | Fold increase over WT, 1 μM GS™-E [1] | reduction in steroid activity [1] | non-steroid activity (summary of Table 14) [1] | Fold increase over WT, 2.5 μM GS™-E [2] | Fold increase over WT, 2.5 μM Ponasterone A [2] | steroid activity (summary of Table 14) [1] | Fold increase over WT, 2.5 μM GS™-E [3] | Fold increase over WT, 2.5 μM PonA [3]
G121R: DmEcR-CDEF LBD substitution mutant, Glycine (G) to Arginine (R) (protein, Drosophila melanogaster) LTYNQLAVIYKLIWYQDGYEQPSEEDLRRIMSQPDENESQTDVSFRHITEITILTVQLIVEFAKGLPAFTKIPQEDQITLLKACSSEVMMLRMARRYDHSSDSIFFANNRSYTRDSYKMARMADNIEDLLHFCRQMFSMKVDNVEYALLTAIVIFSDRPGLEKAQLVEAIQSYYIDTLRIYILNRHCGDSMSLVFYAKLLSILTELRTLGNQNAEMCFSLKLKNRKLPKFLEEIWDV | 0.5 fold | 0.92 fold | 50% | minimal effect | 0.0075 fold | 0.05 fold |  |  | 
C217S: DmEcR-CDEF LBD substitution mutant, Cysteine (C) to Serine (S) (protein, Drosophila melanogaster) LTYNQLAVIYKLIWYQDGYEQPSEEDLRRIMSQPDENESQTDVSFRHITEITILTVQLIVEFAKGLPAFTKIPQEDQITLLKACSSEVMMLRMARRYDHSSDSIFFANNRSYTRDSYKMAGMADNIEDLLHFCRQMFSMKVDNVEYALLTAIVIFSDRPGLEKAQLVEAIQSYYIDTLRIYILNRHCGDSMSLVFYAKLLSILTELRTLGNQNAEMSFSLKLKNRKLPKFLEEIWDV | 0.39 fold | 0.92 fold | 61% | minimal effect | 0.014 fold | 0.0064 fold |  |  | 
A107P: DmEcR-CDEF LBD substitution mutant, Alanine (A) to Proline (P) (protein, Drosophila melanogaster) LTYNQLAVIYKLIWYQDGYEQPSEEDLRRIMSQPDENESQTDVSFRHITEITILTVQLIVEFAKGLPAFTKIPQEDQITLLKACSSEVMMLRMARRYDHSSDSIFFPNNRSYTRDSYKMAGMADNIEDLLHFCRQMFSMKVDNVEYALLTAIVIFSDRPGLEKAQLVEAIQSYYIDTLRIYILNRHCGDSMSLVFYAKLLSILTELRTLGNQNAEMCFSLKLKNRKLPKFLEEIWDV | 0.09 fold | 0.9 fold |  | very little effect |  |  | loss of most steroid activity |  | 
C217A: DmEcR-CDEF LBD substitution mutant, Cysteine (C) to Alanine (A) (protein, Drosophila melanogaster) LTYNQLAVIYKLIWYQDGYEQPSEEDLRRIMSQPDENESQTDVSFRHITEITILTVQLIVEFAKGLPAFTKIPQEDQITLLKACSSEVMMLRMARRYDHSSDSIFFANNRSYTRDSYKMAGMADNIEDLLHFCRQMFSMKVDNVEYALLTAIVIFSDRPGLEKAQLVEAIQSYYIDTLRIYILNRHCGDSMSLVFYAKLLSILTELRTLGNQNAEMAFSLKLKNRKLPKFLEEIWDV | 0.48 fold | 0.70 fold |  | reduced | 0.008 fold | 0.022 fold | reduced |  | 
N213A: DmEcR-CDEF LBD substitution mutant, Asparagine (N) to Alanine (A) (protein, Drosophila melanogaster) LTYNQLAVIYKLIWYQDGYEQPSEEDLRRIMSQPDENESQTDVSFRHITEITILTVQLIVEFAKGLPAFTKIPQEDQITLLKACSSEVMMLRMARRYDHSSDSIFFANNRSYTRDSYKMAGMADNIEDLLHFCRQMFSMKVDNVEYALLTAIVIFSDRPGLEKAQLVEAIQSYYIDTLRIYILNRHCGDSMSLVFYAKLLSILTELRTLGNQAAEMCFSLKLKNRKLPKFLEEIWDV | 0.01 fold | 0.08 fold |  | lost sensitivity |  |  | lost sensitivity |  | 
R95A/A110P: CfEcR-DEF LBD double mutant, R95A and A110P (protein, listed as Choristoneura fumiferana) LTANQQFLIARLIWYQDGYEQPSDEDLKRITQTWQQADDENEESDTPFRQITEMTILTVQLIVEFAKGLPGFAKISQPDQITLLKACSSEVMMLAVARRYDAASDSVLFPNNQAYTRDNYRKAGMAYVIEDLLHFCRCMYSMALDNIHYALLTAVVIFSDRPGLEQPQLVEEIQRYYLNTLRIYILNQLSGSARSSVIYGKILSILSELRTLGMQNSNMCISLKLKNRKLPPFLEEIWDV |  |  |  |  |  |  |  | 0.4 fold | 0.007 fold
Q21A: CfEcR-DEF LBD substitution mutant, Glutamine (Q) to Alanine (A) (protein, listed as Choristoneura fumiferana) LTANQQFLIARLIWYQDGYEAPSDEDLKRITQTWQQADDENEESDTPFRQITEMTILTVQLIVEFAKGLPGFAKISQPDQITLLKACSSEVMMLRVARRYDAASDSVLFANNQAYTRDNYRKAGMAYVIEDLLHFCRCMYSMALDNIHYALLTAVVIFSDRPGLEQPQLVEEIQRYYLNTLRIYILNQLSGSARSSVIYGKILSILSELRTLGMQNSNMCISLKLKNRKLPPFLEEIWDV |  |  |  |  |  |  |  | 0.32 fold | 0.37 fold
F48A: CfEcR-DEF LBD substitution mutant, Phenylalanine (F) to Alanine (A) (protein, listed as Choristoneura fumiferana) LTANQQFLIARLIWYQDGYEQPSDEDLKRITQTWQQADDENEESDTPARQITEMTILTVQLIVEFAKGLPGFAKISQPDQITLLKACSSEVMMLRVARRYDAASDSVLFANNQAYTRDNYRKAGMAYVIEDLLHFCRCMYSMALDNIHYALLTAVVIFSDRPGLEQPQLVEEIQRYYLNTLRIYILNQLSGSARSSVIYGKILSILSELRTLGMQNSNMCISLKLKNRKLPPFLEEIWDV |  |  |  |  |  |  |  | 0.007 fold | 0.007 fold
I51A: CfEcR-DEF LBD substitution mutant, Isoleucine (I) to Alanine (A) (protein, listed as Choristoneura fumiferana) LTANQQFLIARLIWYQDGYEQPSDEDLKRITQTWQQADDENEESDTPFRQATEMTILTVQLIVEFAKGLPGFAKISQPDQITLLKACSSEVMMLRVARRYDAASDSVLFANNQAYTRDNYRKAGMAYVIEDLLHFCRCMYSMALDNIHYALLTAVVIFSDRPGLEQPQLVEEIQRYYLNTLRIYILNQLSGSARSSVIYGKILSILSELRTLGMQNSNMCISLKLKNRKLPPFLEEIWDV |  |  |  |  |  |  |  | 0.003 fold | 0.004 fold

Reference: patent publication US8715959B2, “Substitution mutant receptors and their use in a nuclear receptor-based inducible gene expression system” (priority 2001, dated 2014)
